Laboratory results from publication PMC10397247.
Blank lines part the entries; values can stand above or below the binder they belong to.

Experiments:
[1] = target: T1, 4H535-AA; assay: two-hybrid library CCmax; conditions: mean of both orientations;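 note: natural log of median RNA to DNA barcode read ratio; higher means stronger binding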
T1 chain: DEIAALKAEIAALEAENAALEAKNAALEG

[2] = target: T2, 4H3020-AA; assay: two-hybrid library CCmax; conditions: mean of both orientations;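 note: natural log of median RNA to DNA barcode read ratio; higher means stronger binding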
T2 chain: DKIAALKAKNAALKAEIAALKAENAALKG

[3] = target: T3, 4H486-AA; assay: two-hybrid library CCmax; conditions: mean of both orientations;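 note: natural log of median RNA to DNA barcode read ratio; higher means stronger binding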
T3 chain: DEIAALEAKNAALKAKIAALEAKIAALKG

[4] = target: T4, 4H3705-AA; assay: two-hybrid library CCmax; conditions: mean of both orientations;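 note: natural log of median RNA to DNA barcode read ratio; higher means stronger binding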
T4 chain: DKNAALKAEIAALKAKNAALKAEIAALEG

[5] = target: T5, 4H_BCR; assay: two-hybrid library CCmax; conditions: mean of both orientations;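 note: natural log of median RNA to DNA barcode read ratio; higher means stronger binding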
T5 chain: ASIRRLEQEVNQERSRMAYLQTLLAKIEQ

[6] = target: T6, 4H58-AA; assay: two-hybrid library CCmax; conditions: mean of both orientations;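 note: natural log of median RNA to DNA barcode read ratio; higher means stronger binding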
T6 chain: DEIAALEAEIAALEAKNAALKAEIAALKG

[7] = target: T7, 4H_APH; assay: two-hybrid library CCmax; conditions: mean of both orientations
T7 chain: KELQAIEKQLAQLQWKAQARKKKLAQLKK

[8] = target: T8, 4H3782-AA; assay: two-hybrid library CCmax; conditions: mean of both orientations
T8 chain: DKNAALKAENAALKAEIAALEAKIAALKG

[9] = target: T9, 4H3651-AA; assay: two-hybrid library CCmax; conditions: mean of both orientations
T9 chain: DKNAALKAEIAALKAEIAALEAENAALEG

[10] = target: T10, 4H355-AA; assay: two-hybrid library CCmax; conditions: mean of both orientations
T10 chain: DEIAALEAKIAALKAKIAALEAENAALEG

[11] = target: T11, 4H895-AA; assay: two-hybrid library CCmax; conditions: mean of both orientations
T11 chain: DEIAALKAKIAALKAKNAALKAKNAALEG

[12] = target: 4H_GCN4; assay: two-hybrid library CCmax; conditions: mean of both orientations
[13] = target: T12, 4H3365-AA; assay: two-hybrid library CCmax; conditions: mean of both orientations
T12 chain: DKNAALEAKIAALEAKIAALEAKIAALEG

[14] = target: T13, 4H2898-AA; assay: two-hybrid library CCmax
T13 chain: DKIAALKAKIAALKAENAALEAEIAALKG

[15] = target: T14, 4H465-AA; assay: two-hybrid library CCmax; conditions: mean of both orientations
T14 chain: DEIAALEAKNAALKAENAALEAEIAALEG

[16] = target: GCN2_T; assay: two-hybrid library CCmax
[17] = target: T15, 4H3066-AA; assay: two-hybrid library CCmax; conditions: mean of both orientations
T15 chain: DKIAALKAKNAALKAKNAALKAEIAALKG

[18] = target: T16, 4H189-AA; assay: two-hybrid library CCmax; conditions: mean of both orientations
T16 chain: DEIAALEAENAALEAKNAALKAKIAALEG

[19] = target: T17, 4H3102-AA; assay: two-hybrid library CCmax; conditions: mean of both orientations
T17 chain: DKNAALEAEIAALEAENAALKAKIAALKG

[20] = target: T18, 4H3628-AA; assay: two-hybrid library CCmax; conditions: mean of both orientations
T18 chain: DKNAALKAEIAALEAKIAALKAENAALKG

[21] = target: T19, 4H1854-AA; assay: two-hybrid library CCmax; conditions: mean of both orientations
T19 chain: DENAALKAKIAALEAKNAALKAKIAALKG

[22] = target: T20, 4H2742-AA; assay: two-hybrid library CCmax; conditions: mean of both orientations
T20 chain: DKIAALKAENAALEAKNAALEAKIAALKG

[23] = target: T21, 4H2248-AA; assay: two-hybrid library CCmax; conditions: mean of both orientations
T21 chain: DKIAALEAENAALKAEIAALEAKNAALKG

[24] = target: T22, 4H2948-AA; assay: two-hybrid library CCmax; conditions: mean of both orientations
T22 chain: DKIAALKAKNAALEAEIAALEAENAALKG

[25] = target: T23, 4H3666-AA; assay: two-hybrid library CCmax; conditions: mean of both orientations
T23 chain: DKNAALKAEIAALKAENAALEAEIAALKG

[26] = target: T24, 4H656-AA; assay: two-hybrid library CCmax; conditions: mean of both orientations
T24 chain: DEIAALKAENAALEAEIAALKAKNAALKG

[27] = target: T25, 4H3121-AA; assay: two-hybrid library CCmax; conditions: mean of both orientations
T25 chain: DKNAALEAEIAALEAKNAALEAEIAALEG

[28] = target: T26, 4H478-AA; assay: two-hybrid library CCmax; conditions: mean of both orientations
T26 chain: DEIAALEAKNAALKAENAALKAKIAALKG

[29] = target: T27, 4H2283-AA; assay: two-hybrid library CCmax; conditions: mean of both orientations
T27 chain: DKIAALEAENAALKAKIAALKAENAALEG

[30] = target: T28, 4H391-AA; assay: two-hybrid library CCmax; conditions: mean of both orientations
T28 chain: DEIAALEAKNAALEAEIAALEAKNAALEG

[31] = target: T29, 4H3446-AA; assay: two-hybrid library CCmax; conditions: mean of both orientations
T29 chain: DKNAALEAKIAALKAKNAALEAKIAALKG

[32] = target: T30, 4H497-AA; assay: two-hybrid library CCmax; conditions: mean of both orientations
T30 chain: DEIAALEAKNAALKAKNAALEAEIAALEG

[33] = target: T31, 4H3417-AA; assay: two-hybrid library CCmax; conditions: mean of both orientations
T31 chain: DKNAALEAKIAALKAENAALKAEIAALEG

[34] = target: T32, 4H971-AA; assay: two-hybrid library CCmax
T32 chain: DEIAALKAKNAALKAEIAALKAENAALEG

[35] = target: T33, 4H3591-AA; assay: two-hybrid library CCmax; conditions: mean of both orientations
T33 chain: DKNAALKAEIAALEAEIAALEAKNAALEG

[36] = target: T34, 4H3920-AA; assay: two-hybrid library CCmax; conditions: mean of both orientations
T34 chain: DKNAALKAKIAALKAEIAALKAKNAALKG

[37] = target: T35, 4H2713-AA; assay: two-hybrid library CCmax; conditions: mean of both orientations
T35 chain: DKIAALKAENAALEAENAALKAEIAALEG

[38] = target: T36, 4H2991-AA; assay: two-hybrid library CCmax; conditions: mean of both orientations
T36 chain: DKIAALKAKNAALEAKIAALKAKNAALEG

[39] = target: T37, 4H1809-AA; assay: two-hybrid library CCmax; conditions: mean of both orientations
T37 chain: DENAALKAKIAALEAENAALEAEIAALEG

[40] = target: T38, 4H3939-AA; assay: two-hybrid library CCmax; conditions: mean of both orientations
T38 chain: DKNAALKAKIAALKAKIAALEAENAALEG

[41] = target: T39, 4H428-AA; assay: two-hybrid library CCmax; conditions: mean of both orientations
T39 chain: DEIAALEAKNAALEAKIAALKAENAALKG

[42] = target: T40, 4H3709-AA; assay: two-hybrid library CCmax; conditions: mean of both orientations
T40 chain: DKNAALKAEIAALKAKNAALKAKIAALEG

[43] = target: T41, 4H675-AA; assay: two-hybrid library CCmax; conditions: mean of both orientations
T41 chain: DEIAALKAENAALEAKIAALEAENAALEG

[44] = target: T42, 4H3029-AA; assay: two-hybrid library CCmax; conditions: mean of both orientations
T42 chain: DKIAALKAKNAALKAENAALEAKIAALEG

[45] = target: T43, 4H2839-bH; assay: two-hybrid library CCNG1
T43 chain: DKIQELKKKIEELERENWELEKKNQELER

[46] = target: T44, 4H2588-bH; assay: two-hybrid library CCNG1
T44 chain: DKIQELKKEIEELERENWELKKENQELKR

[47] = target: T45, 4H477-bH; assay: two-hybrid library CCNG1
T45 chain: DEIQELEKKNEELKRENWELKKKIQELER

[48] = target: T46, 4H2915-bH; assay: two-hybrid library CCNG1
T46 chain: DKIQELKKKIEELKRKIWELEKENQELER

[49] = target: T47, 4H3277-bH; assay: two-hybrid library CCNG1
T47 chain: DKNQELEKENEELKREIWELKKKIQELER

[50] = target: T48, 4H40-bH; assay: two-hybrid library CCNG1
T48 chain: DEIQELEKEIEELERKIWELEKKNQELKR

[51] = target: T49, 4H3057-bH; assay: two-hybrid library CCNG1
T49 chain: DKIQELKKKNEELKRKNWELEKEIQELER

[52] = target: T50, 4H2717-bH; assay: two-hybrid library CCNG1
T50 chain: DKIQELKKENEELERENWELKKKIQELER

[53] = target: T51, 4H2585-bH; assay: two-hybrid library CCNG1
T51 chain: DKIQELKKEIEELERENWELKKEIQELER

[54] = target: T52, 4H319-bH; assay: two-hybrid library CCNG1
T52 chain: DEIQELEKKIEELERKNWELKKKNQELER

[55] = target: T53, 4H741-bH; assay: two-hybrid library CCNG1
T53 chain: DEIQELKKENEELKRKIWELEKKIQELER

[56] = target: T54, 4H492-bH; assay: two-hybrid library CCNG1
T54 chain: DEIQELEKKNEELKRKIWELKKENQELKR

[57] = target: T55, 4H2692-bH; assay: two-hybrid library CCNG1
T55 chain: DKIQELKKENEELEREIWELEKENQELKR

[58] = target: T56, 4H348-bH; assay: two-hybrid library CCNG1
T56 chain: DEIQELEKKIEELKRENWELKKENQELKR

4H_GCN4, sequence (chain, as listed by the source): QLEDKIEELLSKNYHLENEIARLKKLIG

interaction score [1]: 0.142
interaction score [2]: -0.301
interaction score [3]: 1.49
interaction score [4]: 1.04
interaction score [5]: 0.271
interaction score [6]: 2.06
interaction score [7]: -1.54
interaction score [8]: -1.39
interaction score [9]: -0.71
interaction score [10]: 0.0321
interaction score [11]: -0.62
interaction score [12]: -0.672
interaction score [13]: -1.78
interaction score [14]: 0.588
interaction score [15]: -1.49
interaction score [16]: -0.0478
Binder: DKIAALKAKIAALKAENAALEAEIAALKG [4H2898-AA]

interaction score [17]: 1.92
interaction score [18]: -0.199
interaction score [19]: -1.45
interaction score [20]: -1.8
interaction score [21]: 1.2
interaction score [22]: 0.586
interaction score [23]: -1.75
interaction score [24]: -1.48
interaction score [25]: -0.984
interaction score [26]: -1.76
interaction score [27]: -1.69
interaction score [28]: 1.98
interaction score [29]: -1.02
interaction score [30]: -1.68
interaction score [31]: -0.572
interaction score [32]: 0.786
interaction score [33]: -0.477
interaction score [34]: 0.134
interaction score [35]: -1.28
interaction score [36]: 0.785
interaction score [37]: 0.457
interaction score [38]: -0.675
interaction score [39]: -1.69
interaction score [40]: -1.52
interaction score [41]: -1.8
interaction score [42]: -0.0632
interaction score [43]: -2.03
interaction score [44]: 2.06
Binder: DEIAALEAENAALEAENAALEAEIAALKG [4H146-AA]

interaction score [45]: 0.527
interaction score [46]: -0.858
interaction score [47]: -0.993
interaction score [48]: 0.0935
interaction score [49]: -0.644
interaction score [50]: -2.05
interaction score [51]: 0.435
interaction score [52]: -0.106
interaction score [53]: -1.1
interaction score [54]: -0.903
interaction score [55]: 0.303
interaction score [56]: -0.241
interaction score [57]: 0.839
interaction score [58]: -0.941
Binder: DKIQELEKKNEELKREIWELEKKNQELER [4H2503-bH]
